Assay results: a protein production outcome set (Wang et al. 2014)

Experiment: label from the status in PepcDB records
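Note: failed if final PepcDB status was selected cloned or expressed and not failed if soluble or beyond.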

Sequence	protein production
MIKEFSDPLYGFVRVGEAGLRLIDSFPFQRLRYVKQLGLAYLVFPSAQHTRFEHSLGVYHITERICESLKVKEKELVKLAGLLHDLGHPPFSHTTEVLLPRERSHEDFTERVIKETEIYEILKQDYSHEDIERLVRITLGKPEDEEEKLLSEIITGEFGSDRMDYLRRDAYFCGVSYGFFDYDRLISTLRVYENKVVVDESGLRALENFLISRYFMYVQVYFHKVVRILSIHLVEFLKKLISQEDFTDINNFLRLNDAFVISELFKRKAFREDFERIFQRKHFKTLLSTENYEKFSETKERLLEKFPQEKVRFDEVEKEVYGGNIYVLSSEGLKKAHELSPLIASLKPIKLYRIYVDRQLWEKARSELKLS	not failed
MQAPRLRVGIFDDGSSTVNMAEKLDSVGHYVTVLHAPEDIRDFELVVIDAHGVEGYVEKLSAFARRGQMFLHTSLTHGITVMDPLETSGGIVMSAHPIGQDRWVASALDELGETIVGLLVGELGGSIVEIADDKRAQLAAALTYAGFLSTLQRDASYFLDEFLGDPDVTSDIVMDSAQQFQALPSLDEVIAQYDSINNPGRQRLFRDLARRQAEISRAQDIELWAIQKEDR	not failed
QLQDGKGEKVMVEYSSPNTNKPLHLGHLRNNFLGYSISQILKANGFDVIKANLVNDRGIHICKSMIAYQKSGLGETPVSTGMKGDHLVGKYYVAFDKQLKKEVEALVAAGVEEDKAKKEAPILKEAQAMLLKWEQGDKEVYDLWKTMNGWVYDGFNASYKKIGVTFDHFYYESNTYLLGKDIVEEGLAKGVFNKRADGSVWIDLTAEGLDEKLVLRSDGTSVYITQDLGTAELKYKDFGCKRSVYVVGNEQDYHFIVLIHILKKLGKPYANGVYHMSYGMVDLPSGKMKSREGTVVDADDLVDEMIATAKERTLEQGKTDGFSEEQATHLYETLGLGALKYFLLKVDPKKRMMFNPEESIDFQ	failed
METLKKNWTKFILSFIMLVLAIICVYTLSTYKSSEKNTGFLKMGGGFNKSFNSSSRKLNGQPNMKGAPAQHPSNSNANSKSAPPNNFNHNVSKPQRMMGGGEFNSSSKYSSEVLIYSLGFFAIVICAYLAIVKKKIKISTENRGFILAAFLVIGFLFRIIVGLLITGYVTDIGLYKQWALTAAKNLAAVYTNGSVDYPPVYLYVLSIIGKIASSSFMSNYSTLLIKLPSIIADIFSAYFVYRLSIKRFSYETSFALTLFYLFNPAILINSTLWGQADSFFTLLVILAVYFISEDKIVPSSIFFALSVLMKPQGIIFLPLVLFWYIKNKNLKSIFKSIASGFITTIIVLAPFSISKGNITWIFDLYTREVSEYPYASNNAFNFYSLIGANRVKDSNTMFIFSYHTWGMLFIVLITLISGFFYLKSKNKYASTLAALIQVVGVFNFSVGMHERYMFTAVLASILAYIYFKDKRLLLISLLLSFINYANMHTILFNRLNMNVNSSSSMLIVFISLLNITTFVYLIKVCFDLCLKKDIKVTEDIQNTL	failed
MGVNETGYVLIYGGSSWVSQPQALETIYPAENWQEIIQDFRQKQPDLPVVVIQGPDDEQFVRSLRDYSLDIKVTSPDNVGKLTAMIAGANLMLTTDSAPLHLSVAVQTYTIALFGSTDPVKLLPNSDKLLGIKSSTGRVADILPKAVLEKVWGGLEHHHHHH	failed
MDRNSKIVVGLVAVLSIAGLVLSLAGLLEGGEGTIAIIPVHGAIAYDTAGFSDGVDPDDIKELIAEANSDPSVKAIVLDINSPGGTPVASEELMDAINKSEKPVVSWISDSGTSGAYLAASASDRIVASPSAWVGSIGVILDLTDLSQMYRQMGINKYAIKAGEYKDMGADYRMITDEERQMLQSMVNEEYDYFIKTVAANRNLSVSYVKSLAEGRIFTGRQAVRNRLVDFTGGKDYAVEVAAKLAGVKNYNTITLEPPSGFLRVLSSMFSRLGFASGNTTEELQLH	failed
MGSMDQSIAVKSPLTYAEALANTIMNTYTVEELPPANRWHYHQGVFLCGVLRLWEATGEKRYFEYAKAYADLLIDDNGNLLFRRDELDAIQAGLILFPLYEQTKDERYVKAAKRLRSLYGTLNRTSEGGFWHKDGYPYQMWLDGLYMGGPFALKYANLKQETELFDQVVLQESLMRKHTKDAKTGLFYHAWDEAKKMPWANEETGCSPEFWARSIGWYVMSLADMIEELPKKHPNRHVWKNTLQDMIKSICRYQDKETGLWYQIVDKGDRSDNWLESSGSCLYMYAIAKGINKGYLDRAYETTLLKAYQGLIQHKTETSEDGAFLVKDICVGTSAGFYDYYVSRERSTNDLHGAGAFILAMTELEPLFRSAGK	not failed
MGSSHHHHHHSSGENLYFQGHMIYPYKGKTPQIAASAFIADYVTITGDVVIGEETSIWFNTVIRGDVAPTVIGNRVNIQDNSILHQSPNNPLIIEDGVTVGHQVILHSAIVRKNALIGMGSIILDRAEIGEGAFIGAGSLVPPGKKIPPNTLALGRPAKVVRELTEDDIREMERIRREYVEKGQYYKALQQQRTSCADKKELP	not failed
SDSRPAVLDLIGNTPLVRVTRFDTGPCTLYLKLESQNPGGSIKDRIGVAMIEAAERDGRLRPGGTIVEATAGNTGLGLALVGRAKGYRVVLVVPDKMSTEKVLHLRAMGAEVHITRSDVGKGHPEYYQDVAARLAQDIPGAFFADQFNNPANPLAHECGTGPELWAQTGHDLDAIVVGVGSSGTLTGLTRFFQKVQPELEMVLADPEGSIMAEYSRSGTLGTPGSWAVEGIGEDFVPAIADLSSVRHAYSISDEESFAMARELLRVEGIPGGSSTGTLLAAALRFCREQKEPKRVVSFVCDTGTRYLSKIYNDQWMTDQGLLQRKHYGDLRDIIARRFEEGRVISVGPDDTLLTAFQRMRLADVSQLPVLDDGKLVGVIDESDILLGVHADAPRFRDAVSSAMNAAPETLAPGASLAQLQAVLDRGLVAIVADASGFHGLITRFDLL	failed
SEEPPVREEEEEEGEEDEERDEVGPEGALGKSPFQLTAEDVYDISYLLGRELMALGSDPRVTQLQFKVVRVLEMLEALVNEGSLALEELKMERDHLRKEVEGLRRQSPPASGEVNLGPNKMVVDLTDPNRPRFTLQELRDVLQERNKLKSQLLVVQEELQCYKSGLIPPREGPGGRREKDAVVTSAKNAGRNKEEKTIIKKLFFFRSGKQT	failed
MEVDEDIELQKHQEQQSRKLQRFSEDNTGLMRNWNNPSSRIIRVSRASGGKDRHSKVLTSKGLRDRRIRLSVATAIQFYDLQDRLGFDQPSKAVEWLINAASDSITDLPLLNTNFDHLDQNQNQTKSACSSGTSESSLLSLSRTEIRGKARERARERTAKDRDKDLQNAHSSFTQLLTGGFDQQPSNRNWTGGSDCFNPVQLQIPNSSSQEPMNHPFSFVPDYNFGISSSSSAINGGYSSRGTLQSNSQSLFLNNNNNITQRSSISSSSSSSSPMDSQSISFFMATPPPLDHHNHQLPETFDGRLYLYYGEGNRSSDDKAKERR	failed
MKKILVHGVKEKTPLGFCDVPRKNLLDFLRDMKSISVPNEPRYKPLRKIHQAASDGDTERLQRMISLGKHSVHDRDFKERTALHFACACGQVEVVSILLRNNCDIDAADMNFITPLMKAVQNWTYECVCILLKHGADPNRKDKNGNTSLHYAVSEDNQTLAKCLLKYSANMEQKNKDGFTPLLLALKENKIEMAKFLVKMGANIHVFDDMRRNTLLYAIRWDSKDMVNLLLDEGIDFFFRDVFGWTALRYAIEGTSKGSREILMNYDEMLRRKNKDGIPEYKFFEDKSLDKHPNNPTSGCTFPKSNENACKFDDELDISKYVLGTCPNNIHGAGEEGDKSETKKAADVQVWTNPTLKSSTKGKVPNLNEVGTMTESHHFIKESDLEIESLVETFSYDNEDKQSMSDDGHFSGTTPKWCQNDTNRKITVQDCMYPNLKSPTEGKIPTRSKAGKMAESAHFIIESDLEIESLEETVSCDSEDKQLLV	failed
MEEGKKMKRIIGMIVSLALLAGLLAGCSTSATGSNINTPAAQAEKTPGAGGSGAEEAAWPRTIVDATGKEITLTEQPQRIAILHSLYLEYFLALGTPPIASAGASTGDAMKALGEWETLKPYAGTAKIIDLGSARDLNLEAILGANPDVIVTFKGQGNLDKIYEQLEQIAPVILVDFSAPWQEQILACAEIVNKEADAQKLIKEIEDSVQSAKEKLSRHQDKTIAIFRTDGGKAFVTRGNKDYYDTFGIAKPEGYPDDYETLSLEAVAEMNPDYIIFQDFITTSQAFVKTQEASSVWQAMEAVKKGQVVYFDDSLNTFGPLATKLTAEKLIQIISD	failed
RYENILLPTDGSEGADLAIEWGITLAEIYDATVHTLYSVDTSRFGGVEGSAEIHDALEETGQEALETVHERARDADVSIAGNIASGPAARAILSYSEEHDIDLIAMGTHGRSGLTRYLTGSVTETVVRNAAVPVCCVPMQ	failed
MDFKIEKYLLKKAEELAFITIKHGGEFKLKSYEVPKGGLDVPIKNEVLVKGIKEKTAQDKLNSMSIADAMIYIIGIDSKFKNNAEYEKFLNALSKDIDLDLKSYMGYMSRKYFEIGEHTDSLIYIKAFITMYPDDLDAMYNYAIVCQEIAKQYQKDMDDKAMNAFLLEAMAKLEKVIDVDENFALGYYHLGYHYYNQGQYLKTKLTWEEALRLGLDADLVAEVQENLGKMDFKVQYEEGYTLVFQGKFKEGLEKLLPLEEEHMDWWNLLFMIALGYKGMGEIEQAKMYLEKILIIKPNQVDTIVELGLCEAYKNNLDKAIEYFEQAAKIKEDPEILCNLGMAYLNNGDIDDATYYIERAYELNPQDEITIVCLRELGINK	failed
MAQTEKLTDYVNPFVGTDGYGNVYPGAQIPFGGIQISPDTDSRFYDAASGYKYNHLTLMGFSLTHLSGTGIPDLGDFLFIPGTGEMKLEPGTHEDPDQGYRSRYSHDKEWASPNYYAVELADYGVKAEMTSGVRSGMFRFTYPESDNAFIMIDMNHTLWQSCEWSNLRMINDSTITGYKLVKGWGPERHVYFTLEHHHHHH	failed
MLIINGKIIPIAHTICAFSAFFAALVTGYSLHFHKIVTNAHYTYPDEWFPSVSATIGDRYPERSIFQILIALTAFPRFLLLLGHYYLNQSKVCFLVGVLRTVSCGGWVYITSTDDHDIHDIFMITYIVLTLPWDIMITRYSSPLTSKNKGLTATIFFGTLFPMIYWYIQHSVQQRAGAYSIYAYFEWSLILLDIAFDAFAYADFKKIDIVLAFNEKPGNTSFFQIRDSSPINYGEEKSSELQKSGEKKVEKEKPVARSATGSYFRFDSFFYLLTNIFNGFLFWSNVTSLLCSIWHFPLWYMGISGYEAAILGYLGPIFLYLPFVSEAFTQYGVLLGGIIAIGAYIVQMPELRLISVAVGTSITVATFVQNLRYITNAETSFSFALTWLLGLVASVILKMGFYTNNPTWVILDERNGGYNKTALVLTVLFGMLSPYVNSINFEGKRNAQAKSASLIGKLFLAVGFGSLLFGIHQLLTDSSTTIYWAWEGYNESHGPLPWPWGALTCTVMLFASLSSVKFMGKPLVPCLLLLISTAVLSARSITQWPKYIFGGLLYAIAMLWLVPSYFSALGQVQNIWVYVLSFSVYIIFVLAHVWVVAYAFVPMGWVLREKIETVLAFSSTFIIIGALTCKNLNIQLVTMGKKFFIYVFFFAVALLSLTARFVYDIRPTGIPQPYHPDSQLITAGIWTIHFGLDNDMWASEDRMINLIKDMELDVVGLLETDTQRITMGNRDLTSKLAHDLNMYADFGPGPNKHTWGCVLLSKFPIVNSTHHLLPSPVGELAPAIHATLQTYNDTLVDVFVFHSGQEEDEEDRRLQSNYMAKLMGNTTRPAILLSYLVVDPGEGNYNTYVSETSGMHDIDPSDDDRWCEYILYRGLRRTGYARVARGTITDTELQVGKFQVLSEQALVEHSDSMYEYGHMSEPEYEDMKFPDKFLGEGERGHFYHVFDEPRYYL	failed
MINKTLTVTLTSIAALAGLSGLANAQEYTNSTHTTSQQSNTYNSQVEQETNLGLTNKDIVKVKDGDTLYQIALSHHLSLEQLYNFNPGVTALIHPGDLIAVSEKGAAKLENKEINYAQTYAETTAFNQSDVVAQSVSASTTNVTGYNIVPTSAPTNTMHDSYHSSVNTPVSYQHVTTANQGNRYSFGNCTYYAFDRRQQLGRSIGSYWGNANNWAYSAKNAGLTVDNRPEVGAIFQTTAGYYGHVGVVEHVNQDGSVYVSEMNWNGHYNRVTNRTITNTSSYNFIH	failed
